Target: BG505 Olio6 trimer (HIV-1 (isolate BG505))
Experiment: SEC-MALS

## BG505 Olio6 trimer (complex)
  stoichiometry N: 3

— paper PMC5698488
